In test [1] the target is microtubules (U2OS cells) (human (endogenous in U2OS)) (UniProt P07437). Nature of the test: co-sedimentation.
The target of test [2] is KRIT1 FERM domain, residues 417-736 (wild type) (human, UniProt O00522 417-736). Nature of the test: ITC. A general note: Isothermal titration calorimetry measures the heat released or taken up as one component is titrated into another.
For test [3], the target named is KRIT1(R452E) FERM domain, residues 417-736 (human, UniProt O00522 417-736, R452E). Put plainly: ITC.
Sequence of KRIT1(R452E) FERM domain, residues 417-736 (O00522 417-736 R452E): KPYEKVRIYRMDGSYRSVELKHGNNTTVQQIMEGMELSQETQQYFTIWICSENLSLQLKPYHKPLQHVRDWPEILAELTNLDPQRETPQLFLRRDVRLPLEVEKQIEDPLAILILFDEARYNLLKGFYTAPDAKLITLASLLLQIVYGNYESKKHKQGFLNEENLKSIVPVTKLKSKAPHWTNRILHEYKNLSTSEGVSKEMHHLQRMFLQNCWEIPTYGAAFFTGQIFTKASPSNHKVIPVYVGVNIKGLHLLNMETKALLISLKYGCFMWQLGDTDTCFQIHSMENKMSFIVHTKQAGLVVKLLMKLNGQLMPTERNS

The values below come from PMC3135476 (Molecular Biology of the Cell, 2011).

Sequence of microtubules (U2OS cells) (human (endogenous in U2OS)) (P07437 whole entry, looked up, the tested form may be a part): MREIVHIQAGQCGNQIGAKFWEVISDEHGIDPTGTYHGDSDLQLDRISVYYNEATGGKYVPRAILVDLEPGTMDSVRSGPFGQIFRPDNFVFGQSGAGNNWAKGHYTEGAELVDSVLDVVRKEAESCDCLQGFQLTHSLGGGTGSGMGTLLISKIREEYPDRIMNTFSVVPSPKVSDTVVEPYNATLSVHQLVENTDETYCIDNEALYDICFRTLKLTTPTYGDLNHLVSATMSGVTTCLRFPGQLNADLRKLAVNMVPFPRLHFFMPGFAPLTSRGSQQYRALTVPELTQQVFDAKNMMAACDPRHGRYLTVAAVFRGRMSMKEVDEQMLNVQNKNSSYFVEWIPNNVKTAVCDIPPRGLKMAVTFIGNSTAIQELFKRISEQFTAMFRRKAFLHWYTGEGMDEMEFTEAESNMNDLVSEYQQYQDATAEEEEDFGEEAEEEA
Sequence of KRIT1 FERM domain, residues 417-736 (wild type) (O00522 417-736): as the sequence (O00522 417-736 R452E) above, with E36R counted along it

In turn, “GFP-fused KRIT1(R452E) (U2OS) (from UniProt O00522 1-736) (natural protein)” came in with a fold increase in association with microtubules over wild-type KRIT1 in test [1] of 8 fold.

B1: Human Rap1 isoform Rap1B (residues 1-167) bound to GMP-PNP (domain or fragment, UniProt P61224 1-167, looked up)
chain: MREYKLVVLGSGGVGKSALTVQFVQGIFVEKYDPTIEDSYRKQVEVDAQQCMLEILDTAGTEQFTAMRDLYMKNGQGFALVYSITAQSTFNDLQDLREQILRVKDTDDVPMILVGNKCDLEDERVVGKEQGQNLARQWNNCAFLESSAKSKINVNEIFYDLVRQINR
As to B1, the dissociation constant Kd in test [2] was found to be 1.8 ± 0.25 µM; in test [3] it was 67 ± 18.7 µM.

For orientation: Kd means the constant that tells how readily two partners part at equilibrium. Low readings indicate tighter binding, high ones weaker binding.
